Values belong to the molecule of their own block, whether it stands above or below them.
Columns and labels:
[1] = test system: S75 (S75a) (DNA, aptamer) GGGAGACAAGAATAAACGCTCAACTGGTATCTATATGAAGGTTGTAGCTTCGACAGGAGGCTCACAACAGGC; test: fluorescence titration of dye into aptamer, sigmoidal fit; conditions: binding solution (composition not given); 50 nM aptamer; ex 434 nm, em 610 nm; apparent
[2] = test system: S51 (S51a) (DNA, aptamer) GGGAGACAAGAATAAACGCTCAAAGATAAAAAGGCTGTCTGAAAATTTTCGACAGGAGGCTCACAACAGGC; test: as above; conditions: binding solution (composition not given); 50 nM aptamer; ex 434 nm, em 610 nm; apparent
[3] = test system: S11 (S11a) (DNA, aptamer) GGGAGACAAGAATAAACGCTCAAGGCAACATACTGTAAAGCTCAGGACTTCGACAGGAGGCTCACAACAGGC; test: as above; conditions: binding solution (composition not given); 50 nM aptamer; ex 434 nm, em 610 nm; apparent
[4] = biological target: MUC1 variable tandem repeat (VTR) peptide (UniProt P15941); test: Ru(phen)2dppz fluorescence displacement; conditions: Ru dye; Ru displacement: 50 nM aptamer in binding solution (composition not given), excitation 434 nm, emission 610 nm; thermal assay: binding solution, 1 h ambient …
lipase = test: Ru(phen)2dppz fluorescence displacement; conditions: no displacement up to 250 µM; aptamer given as variable region, S11b inferred; Ru displacement: 50 nM aptamer in binding solution (composition not given), excitation 434 nm, emission 610 nm; thermal assay: binding solution, 1 h ambient …
MUC1/Y 20mer peptide [5] = biological target: T1, MUC1/Y 20mer peptide (UniProt P15941-7); test: Ru(phen)2dppz fluorescence displacement; 1.5 µM Ru dye; Kd only in Figure 2C; Ru displacement: 50 nM aptamer in binding solution (composition not given), excitation 434 nm, emission 610 nm; thermal assay: binding solution, 1 h ambient then SYBR Green I, 3-100 °C; cells: PBS, 4 °C, 1 h; conditions: predicted hairpin (m-fold)
T1 chain: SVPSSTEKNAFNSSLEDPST

MUC1/Y 20mer peptide [6] = biological target: T1, MUC1/Y 20mer peptide; test: thermal denaturation (SYBR Green I); 1:1000 aptamer:peptide; Tm 20 and 45 to 16 °C; Ru displacement: 50 nM aptamer in binding solution (composition not given), excitation 434 nm, emission 610 nm; thermal assay: binding solution, 1 h ambient then SYBR Green I, 3-100 °C; cells: PBS, 4 °C, 1 h; conditions: hairpin (m-fold)
MUC1/Y 10mer peptide [7] = biological target: T2, MUC1/Y 10mer peptide (UniProt P15941-7); test: thermal denaturation (SYBR Green I); 1:1000 aptamer:peptide; Tm 20 and 45 to 26 °C; Ru displacement: 50 nM aptamer in binding solution (composition not given), excitation 434 nm, emission 610 nm; thermal assay: binding solution, 1 h ambient then SYBR Green I, 3-100 °C; cells: PBS, 4 °C, 1 h; conditions: hairpin (m-fold)
T2 chain: TEKNAFNSSL

MUC1/Y 10mer peptide [8] = biological target: T2, MUC1/Y 10mer peptide; test: thermal denaturation (SYBR Green I); 1:1000 aptamer:peptide; Tm 35 to 43 °C; Ru displacement: 50 nM aptamer in binding solution (composition not given), excitation 434 nm, emission 610 nm; thermal assay: binding solution, 1 h ambient then SYBR Green I, 3-100 °C; cells: PBS, 4 °C, 1 h; conditions: predicted hairpin (m-fold)
MUC1/Y 20mer peptide [9] = biological target: T1, MUC1/Y 20mer peptide; test: thermal denaturation (SYBR Green I); 1:1000 aptamer:peptide; Tm 35 to 30 °C; Ru displacement: 50 nM aptamer in binding solution (composition not given), excitation 434 nm, emission 610 nm; thermal assay: binding solution, 1 h ambient then SYBR Green I, 3-100 °C; cells: PBS, 4 °C, 1 h; conditions: predicted hairpin (m-fold)
MUC1/Y 10mer peptide [10] = biological target: T2, MUC1/Y 10mer peptide; test: thermal denaturation (SYBR Green I); 1:1000 aptamer:peptide; Tm 21 to 7 and 20 °C; Ru displacement: 50 nM aptamer in binding solution (composition not given), excitation 434 nm, emission 610 nm; thermal assay: binding solution, 1 h ambient then SYBR Green I, 3-100 °C; cells: PBS, 4 °C, 1 h
MUC1/Y 20mer peptide [11] = biological target: T1, MUC1/Y 20mer peptide; test: thermal denaturation (SYBR Green I); 1:1000 aptamer:peptide; Tm 21 to 16 °C; Ru displacement: 50 nM aptamer in binding solution (composition not given), excitation 434 nm, emission 610 nm; thermal assay: binding solution, 1 h ambient then SYBR Green I, 3-100 °C; cells: PBS, 4 °C, 1 h
MUC1/Y 20mer peptide [12] = biological target: T1, MUC1/Y 20mer peptide; test: Ru(phen)2dppz fluorescence displacement; 2 µM Ru dye; Kd only in Figure 2C; Ru displacement: 50 nM aptamer in binding solution (composition not given), excitation 434 nm, emission 610 nm; thermal assay: binding solution, 1 h ambient then SYBR Green I, 3-100 °C; cells: PBS, 4 °C, 1 h; conditions: predicted hairpin (m-fold)

Sequence of MUC1 variable tandem repeat (VTR) peptide (P15941 whole entry): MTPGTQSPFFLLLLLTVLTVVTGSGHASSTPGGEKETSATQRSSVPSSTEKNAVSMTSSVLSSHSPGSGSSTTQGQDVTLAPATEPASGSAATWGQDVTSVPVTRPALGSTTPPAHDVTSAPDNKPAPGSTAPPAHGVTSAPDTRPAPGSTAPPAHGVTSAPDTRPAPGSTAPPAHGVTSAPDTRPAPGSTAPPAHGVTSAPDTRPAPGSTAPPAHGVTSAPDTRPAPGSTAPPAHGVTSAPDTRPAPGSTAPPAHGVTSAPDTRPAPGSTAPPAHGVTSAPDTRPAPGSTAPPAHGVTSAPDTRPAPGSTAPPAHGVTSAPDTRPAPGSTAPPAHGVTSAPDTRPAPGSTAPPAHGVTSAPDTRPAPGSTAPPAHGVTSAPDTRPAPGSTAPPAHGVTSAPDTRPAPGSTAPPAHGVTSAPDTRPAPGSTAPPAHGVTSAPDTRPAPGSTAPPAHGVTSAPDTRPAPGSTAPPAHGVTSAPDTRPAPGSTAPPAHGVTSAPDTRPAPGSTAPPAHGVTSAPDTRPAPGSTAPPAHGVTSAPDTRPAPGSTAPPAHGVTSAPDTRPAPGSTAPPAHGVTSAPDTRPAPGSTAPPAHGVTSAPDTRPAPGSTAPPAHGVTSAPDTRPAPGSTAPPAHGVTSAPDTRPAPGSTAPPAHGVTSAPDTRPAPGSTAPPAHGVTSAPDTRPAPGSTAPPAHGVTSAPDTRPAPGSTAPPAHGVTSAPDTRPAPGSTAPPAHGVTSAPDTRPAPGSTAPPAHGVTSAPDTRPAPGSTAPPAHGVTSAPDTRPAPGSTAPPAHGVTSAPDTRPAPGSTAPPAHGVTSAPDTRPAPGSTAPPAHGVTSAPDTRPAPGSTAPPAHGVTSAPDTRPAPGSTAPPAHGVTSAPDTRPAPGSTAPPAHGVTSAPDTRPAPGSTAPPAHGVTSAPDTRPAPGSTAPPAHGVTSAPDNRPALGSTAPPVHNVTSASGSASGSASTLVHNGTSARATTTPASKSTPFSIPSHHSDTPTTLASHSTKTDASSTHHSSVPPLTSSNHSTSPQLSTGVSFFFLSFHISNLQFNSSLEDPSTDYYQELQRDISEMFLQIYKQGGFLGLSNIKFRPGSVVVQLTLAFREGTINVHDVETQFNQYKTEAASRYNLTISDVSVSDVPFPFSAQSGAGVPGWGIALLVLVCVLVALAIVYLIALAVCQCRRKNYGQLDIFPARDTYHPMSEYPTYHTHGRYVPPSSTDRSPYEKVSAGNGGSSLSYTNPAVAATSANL

Kd [1]: 240 nM | Kd [2]: 440 nM | Kd [3]: 350 nM
Molecule: [Ru+2].c1ccc2nc3c4cccnc4c4ncccc4c3nc2c1.c1cnc2c(c1)ccc1cccnc12.c1cnc2c(c1)ccc1cccnc12

Molecule: GGCAACATACTGTAAAGCTCAGGAC [S11b (S11 variable region)]
binding signal (fold more peptide than MUC1/Y peptide) [4]: > 100 | Kd (lipase): > 250000 nM

B1: S51a (S51 full length) (ssDNA)
DNA: GGGAGACAAGAATAAACGCTCAAAGATAAAAAGGCTGTCTGAAAATTTTCGACAGGAGGCTCACAACAGGC
binding result (MUC1/Y 20mer peptide [5]): binds

B2: S11c (S11 hairpin region) (ssDNA)
DNA: ACTGTAAAGCTCAGGACTTCGACAGG
binding result (MUC1/Y 20mer peptide [6]): binds | binding result (MUC1/Y 10mer peptide [7]): binds

B3: S11a (S11 full length) (ssDNA)
DNA: GGGAGACAAGAATAAACGCTCAAGGCAACATACTGTAAAGCTCAGGACTTCGACAGGAGGCTCACAACAGGC
binding result (MUC1/Y 10mer peptide [8]): binds | binding result (MUC1/Y 20mer peptide [9]): binds

B4: S11b (S11 variable region) (ssDNA)
DNA: GGCAACATACTGTAAAGCTCAGGAC
binding result (MUC1/Y 10mer peptide [10]): binds | binding result (MUC1/Y 20mer peptide [11]): binds

B5: S75a (S75 full length) (ssDNA)
DNA: GGGAGACAAGAATAAACGCTCAACTGGTATCTATATGAAGGTTGTAGCTTCGACAGGAGGCTCACAACAGGC
binding result (MUC1/Y 20mer peptide [12]): binds

Reference: PMC8400696
